B1: Myozenin-2 (Homo sapiens), Q9NPC6 (parent)
chain: MLSHNTMMKQRKQQATAIMKEVHGNDVDGMDLGKKVSIPRDIMLEELSHLSNRGARLFKMRQRRSDKYTFENFQYQSRAQINHSIAMQNGKVDGSNLEGGSQQAPLTPPNTPDPRSPPNPDNIAPGYSGPLKEIPPEKFNTTAVPKYYQSPWEQAISNDPELLEALYPKLFKPEGKAELPDYRSFNRVATPFGGFEKASRMVKFKVPDFELLLLTDPRFMSFVNPLSGRRSFNRTPKGWISENIPIVITTEPTDDTTVPESEDL
B2: F-box only protein 7 (Homo sapiens), Q9Y3I1 (parent)
chain: MRLRVRLLKRTWPLEVPETEPTLGHLRSHLRQSLLCTWGYSSNTRFTITLNYKDPLTGDEETLASYGIVSGDLICLILQDDIPAPNIPSSTDSEHSSLQNNEQPSLATSSNQTSMQDEQPSDSFQGQAAQSGVWNDDSMLGPSQNFEAESIQDNAHMAEGTGFYPSEPMLCSESVEGQVPHSLETLYQSADCSDANDALIVLIHLLMLESGYIPQGTEAKALSMPEKWKLSGVYKLQYMHPLCEGSSATLTCVPLGNLIVVNATLKINNEIRSVKRLQLLPESFICKEKLGENVANIYKDLQKLSRLFKDQLVYPLLAFTRQALNLPDVFGLVVLPLELKLRIFRLLDVRSVLSLSAVCRDLFTASNDPLLWRFLYLRDFRDNTVRVQDTDWKELYRKRHIQRKESPKGRFVMLLPSSTHTIPFYPNPLHPRPFPSSRLPPGIIGGEYDQRPTLPYVGDPISSLIPGPGETPSQFPPLRPRFDPVGPLPGPNPILPGRGGPNDRFPFRPSRGRPTDGRLSFM
B3: U4/U6 small nuclear ribonucleoprotein Prp3 (Homo sapiens), O43395 (parent)
chain: MALSKRELDELKPWIEKTVKRVLGFSEPTVVTAALNCVGKGMDKKKAADHLKPFLDDSTLRFVDKLFEAVEEGRSSRHSKSSSDRSRKRELKEVFGDDSEISKESSGVKKRRIPRFEEVEEEPEVIPGPPSESPGMLTKLQIKQMMEAATRQIEERKKQLSFISPPTPQPKTPSSSQPERLPIGNTIQPSQAATFMNDAIEKARKAAELQARIQAQLALKPGLIGNANMVGLANLHAMGIAPPKVELKDQTKPTPLILDEQGRTVDATGKEIELTHRMPTLKANIRAVKREQFKQQLKEKPSEDMESNTFFDPRVSIAPSQRQRRTFKFHDKGKFEKIAQRLRTKAQLEKLQAEISQAARKTGIHTSTRLALIAPKKELKEGDIPEIEWWDSYIIPNGFDLTEENPKREDYFGITNLVEHPAQLNPPVDNDTPVTLGVYLTKKEQKKLRRQTRREAQKELQEKVRLGLMPPPEPKVRISNLMRVLGTEAVQDPTKVEAHVRAQMAKRQKAHEEANAARKLTAEQRKVKKIKKLKEDISQGVHISVYRVRNLSNPAKKFKIEANAGQLYLTGVVVLHKDVNVVVVEGGPKAQKKFKRLMLHRIKWDEQTSNTKGDDDEESDEEAVKKTNKCVLVWEGTAKDRSFGEMKFKQCPTENMAREHFKKHGAEHYWDLALSESVLESTD
B4: Keratin, type II cytoskeletal 6A (Homo sapiens), P02538 (parent)
chain: MASTSTTIRSHSSSRRGFSANSARLPGVSRSGFSSVSVSRSRGSGGLGGACGGAGFGSRSLYGLGGSKRISIGGGSCAISGGYGSRAGGSYGFGGAGSGFGFGGGAGIGFGLGGGAGLAGGFGGPGFPVCPPGGIQEVTVNQSLLTPLNLQIDPTIQRVRAEEREQIKTLNNKFASFIDKVRFLEQQNKVLETKWTLLQEQGTKTVRQNLEPLFEQYINNLRRQLDSIVGERGRLDSELRGMQDLVEDFKNKYEDEINKRTAAENEFVTLKKDVDAAYMNKVELQAKADTLTDEINFLRALYDAELSQMQTHISDTSVVLSMDNNRNLDLDSIIAEVKAQYEEIAQRSRAEAESWYQTKYEELQVTAGRHGDDLRNTKQEIAEINRMIQRLRSEIDHVKKQCANLQAAIADAEQRGEMALKDAKNKLEGLEDALQKAKQDLARLLKEYQELMNVKLALDVEIATYRKLLEGEECRLNGEGVGQVNISVVQSTVSSGYGGASGVGSGLGLGGGSSYSYGSGLGVGGGFSSSSGRAIGGGLSSVGGGSSTIKYTTTSSSSRKSYKH
partner: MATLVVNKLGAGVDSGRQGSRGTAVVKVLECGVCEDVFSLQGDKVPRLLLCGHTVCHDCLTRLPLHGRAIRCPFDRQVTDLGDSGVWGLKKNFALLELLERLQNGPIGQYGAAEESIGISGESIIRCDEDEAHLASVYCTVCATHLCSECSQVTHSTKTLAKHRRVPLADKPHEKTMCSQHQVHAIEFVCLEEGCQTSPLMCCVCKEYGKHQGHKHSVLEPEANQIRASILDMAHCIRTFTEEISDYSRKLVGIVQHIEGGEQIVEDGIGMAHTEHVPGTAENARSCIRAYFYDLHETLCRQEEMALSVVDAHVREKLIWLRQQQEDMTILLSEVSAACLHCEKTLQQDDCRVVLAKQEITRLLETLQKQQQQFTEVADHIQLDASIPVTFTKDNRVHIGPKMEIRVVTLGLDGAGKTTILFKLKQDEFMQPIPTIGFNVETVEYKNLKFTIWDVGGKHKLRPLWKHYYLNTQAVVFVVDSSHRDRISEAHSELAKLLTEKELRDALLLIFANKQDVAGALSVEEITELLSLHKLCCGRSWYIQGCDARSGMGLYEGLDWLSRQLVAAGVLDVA

From IntAct's records for PubMed 25910212 come the findings set out here.

The first experiment covers variants of B1. The following applies: with actn2_human ACTN2, P35609.
Sequence of actn2_human ACTN2, P35609 (P35609 whole entry): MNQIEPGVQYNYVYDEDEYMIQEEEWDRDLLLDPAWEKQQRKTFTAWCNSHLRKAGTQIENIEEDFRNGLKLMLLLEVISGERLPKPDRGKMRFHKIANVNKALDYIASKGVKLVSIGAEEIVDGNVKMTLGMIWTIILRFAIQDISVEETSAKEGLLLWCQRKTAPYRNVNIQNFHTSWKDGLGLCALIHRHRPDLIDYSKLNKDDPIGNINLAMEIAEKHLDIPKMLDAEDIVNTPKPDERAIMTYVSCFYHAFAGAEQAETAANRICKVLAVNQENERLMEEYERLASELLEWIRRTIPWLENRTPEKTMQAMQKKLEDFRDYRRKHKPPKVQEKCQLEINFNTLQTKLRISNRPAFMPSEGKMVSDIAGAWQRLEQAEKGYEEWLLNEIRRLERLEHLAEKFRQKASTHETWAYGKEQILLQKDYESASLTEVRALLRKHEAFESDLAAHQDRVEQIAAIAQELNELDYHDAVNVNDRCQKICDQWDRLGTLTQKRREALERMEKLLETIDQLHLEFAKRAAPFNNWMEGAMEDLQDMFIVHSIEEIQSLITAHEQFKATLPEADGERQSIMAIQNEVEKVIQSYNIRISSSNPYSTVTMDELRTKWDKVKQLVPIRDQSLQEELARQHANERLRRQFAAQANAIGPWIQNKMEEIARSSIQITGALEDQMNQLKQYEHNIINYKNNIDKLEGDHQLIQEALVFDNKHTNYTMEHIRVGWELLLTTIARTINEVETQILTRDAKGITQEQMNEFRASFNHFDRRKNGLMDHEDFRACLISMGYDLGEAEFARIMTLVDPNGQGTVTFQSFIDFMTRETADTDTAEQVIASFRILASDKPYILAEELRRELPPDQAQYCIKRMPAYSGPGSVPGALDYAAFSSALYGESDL
S48P: the “effect of a mutation on the interaction” value is on record as “with no effect”. Same read-out and setting: as for I246M, the entry is “with no effect”.

Another experiment covers variants of B1. The following applies: with actn1_human ACTN1, P12814.
Sequence of actn1_human ACTN1, P12814 (P12814 whole entry): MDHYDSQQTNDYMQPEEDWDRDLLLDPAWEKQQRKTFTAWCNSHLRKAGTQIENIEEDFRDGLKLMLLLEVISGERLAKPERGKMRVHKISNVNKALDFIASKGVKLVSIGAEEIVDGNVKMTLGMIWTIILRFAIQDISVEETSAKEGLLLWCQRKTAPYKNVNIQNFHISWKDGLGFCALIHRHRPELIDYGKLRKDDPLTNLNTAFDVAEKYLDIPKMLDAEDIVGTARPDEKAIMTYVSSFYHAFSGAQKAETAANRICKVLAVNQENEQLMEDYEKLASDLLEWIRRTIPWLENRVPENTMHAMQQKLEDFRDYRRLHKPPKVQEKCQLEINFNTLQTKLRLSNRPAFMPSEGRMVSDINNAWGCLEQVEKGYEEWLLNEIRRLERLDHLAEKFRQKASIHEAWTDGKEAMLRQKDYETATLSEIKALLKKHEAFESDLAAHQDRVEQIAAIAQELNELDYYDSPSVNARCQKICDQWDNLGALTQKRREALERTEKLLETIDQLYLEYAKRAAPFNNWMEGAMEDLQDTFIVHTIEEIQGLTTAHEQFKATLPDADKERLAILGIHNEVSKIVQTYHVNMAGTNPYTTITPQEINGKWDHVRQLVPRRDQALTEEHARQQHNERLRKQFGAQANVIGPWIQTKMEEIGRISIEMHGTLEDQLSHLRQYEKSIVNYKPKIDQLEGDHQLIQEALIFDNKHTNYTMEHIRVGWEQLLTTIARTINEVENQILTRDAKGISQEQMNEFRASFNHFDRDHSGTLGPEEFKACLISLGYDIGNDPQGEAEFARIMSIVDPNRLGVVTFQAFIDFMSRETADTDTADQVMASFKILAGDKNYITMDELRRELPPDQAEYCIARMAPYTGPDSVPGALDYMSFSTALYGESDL
As for S48P, the “effect of a mutation on the interaction” value is listed as “with no effect”. The same measure, in the same setting: as for I246M, the entry is “with no effect”.

In a further experiment the parent is B1. The following applies: with actn4_human ACTN4, O43707.
Sequence of actn4_human ACTN4, O43707 (O43707 whole entry): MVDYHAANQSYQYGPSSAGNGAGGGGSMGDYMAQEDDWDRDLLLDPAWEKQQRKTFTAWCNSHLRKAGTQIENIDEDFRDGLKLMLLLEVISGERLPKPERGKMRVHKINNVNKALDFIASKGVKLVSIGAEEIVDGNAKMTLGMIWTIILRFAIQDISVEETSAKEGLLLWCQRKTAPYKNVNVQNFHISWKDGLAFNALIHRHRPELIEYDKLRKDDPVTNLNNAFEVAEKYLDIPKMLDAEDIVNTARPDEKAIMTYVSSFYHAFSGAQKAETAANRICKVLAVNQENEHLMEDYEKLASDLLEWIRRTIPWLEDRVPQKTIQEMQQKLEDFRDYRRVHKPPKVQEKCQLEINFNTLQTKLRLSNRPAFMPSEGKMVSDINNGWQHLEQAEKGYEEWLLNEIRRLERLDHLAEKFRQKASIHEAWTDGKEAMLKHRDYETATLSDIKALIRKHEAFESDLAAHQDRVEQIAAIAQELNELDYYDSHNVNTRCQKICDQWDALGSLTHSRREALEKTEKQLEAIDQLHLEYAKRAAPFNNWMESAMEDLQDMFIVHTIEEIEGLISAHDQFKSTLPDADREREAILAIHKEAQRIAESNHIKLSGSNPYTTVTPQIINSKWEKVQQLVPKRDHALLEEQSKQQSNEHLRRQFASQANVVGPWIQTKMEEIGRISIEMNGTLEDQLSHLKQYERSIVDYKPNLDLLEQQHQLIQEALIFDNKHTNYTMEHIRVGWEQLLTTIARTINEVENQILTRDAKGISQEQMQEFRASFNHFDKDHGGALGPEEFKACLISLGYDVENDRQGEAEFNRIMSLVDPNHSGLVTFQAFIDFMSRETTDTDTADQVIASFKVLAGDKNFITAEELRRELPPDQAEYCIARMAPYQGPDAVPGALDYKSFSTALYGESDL
As to S48P, the “effect of a mutation on the interaction” value is “with no effect”. The same measure, in the same setting: as for I246M, the entry is “with no effect”.

Another experiment covers variants of B2. The settings on record: with psa3_human PSMA3, P25788.
Sequence of psa3_human PSMA3, P25788 (P25788 whole entry): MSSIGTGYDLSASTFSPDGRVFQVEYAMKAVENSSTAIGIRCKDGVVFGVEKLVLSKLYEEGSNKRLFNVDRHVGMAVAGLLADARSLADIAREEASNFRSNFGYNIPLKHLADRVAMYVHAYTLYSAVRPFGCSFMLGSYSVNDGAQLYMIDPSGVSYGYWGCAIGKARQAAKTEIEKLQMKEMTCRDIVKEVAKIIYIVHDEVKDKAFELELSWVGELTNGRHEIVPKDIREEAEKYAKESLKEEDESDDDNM
Regarding T22M, the “effect of a mutation on the interaction” value is on record as “disrupting interaction strength”.

Variants of B3 are the subject of another experiment. The settings on record: with psmd3_human PSMD3, O43242.
Sequence of psmd3_human PSMD3, O43242 (O43242 whole entry): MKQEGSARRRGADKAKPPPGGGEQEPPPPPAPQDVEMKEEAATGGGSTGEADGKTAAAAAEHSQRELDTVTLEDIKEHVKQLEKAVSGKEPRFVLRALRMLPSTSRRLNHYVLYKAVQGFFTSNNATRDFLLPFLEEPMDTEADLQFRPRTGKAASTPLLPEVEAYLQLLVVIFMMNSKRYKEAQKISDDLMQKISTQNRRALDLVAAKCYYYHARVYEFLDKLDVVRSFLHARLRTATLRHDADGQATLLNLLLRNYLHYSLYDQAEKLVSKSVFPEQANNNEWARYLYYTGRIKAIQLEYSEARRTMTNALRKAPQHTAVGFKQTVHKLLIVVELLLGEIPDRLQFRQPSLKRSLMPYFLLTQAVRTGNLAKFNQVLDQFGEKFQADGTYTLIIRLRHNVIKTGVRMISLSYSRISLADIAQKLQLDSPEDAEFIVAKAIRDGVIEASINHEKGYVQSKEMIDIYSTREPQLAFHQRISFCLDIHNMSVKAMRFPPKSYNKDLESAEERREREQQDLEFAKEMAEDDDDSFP
Take T494M: the “effect of a mutation on the interaction” value is listed as “disrupting interaction strength”. Same read-out and setting: the entry for P493S is “disrupting interaction strength”. For A489D, the “effect of a mutation on the interaction” value was “disrupting interaction strength”.

Variants of B3 are the subject of the next experiment. The following applies: with fam9b_human FAM9B.
Turning to T494M, the “effect of a mutation on the interaction” value was “disrupting interaction strength”. Same read-out and setting: the entry for P493S is “with no effect”. Turning to A489D, the “effect of a mutation on the interaction” value is listed as “with no effect”.

Variants of B4 are the subject of a further experiment. The following applies: with tri23_human TRIM23, P36406.
V523F: the “effect of a mutation on the interaction” value is given as “with no effect”. As for N171K, the “effect of a mutation on the interaction” value is “disrupting interaction strength”.

Turning to F174V, the “effect of a mutation on the interaction” value was “with no effect”. A463P: the “effect of a mutation on the interaction” value was “disrupting interaction strength”. The same measure, in the same setting: the entry for T552S is “with no effect”; for F249L it is “with no effect”. Still for that read-out and setting: as for N21S, the entry is “with no effect”; as for I462S, “disrupting interaction strength”.
